Measurements as given in paper PMC11021452, “Exposing the molecular heterogeneity of glycosylated biotherapeutics” (Nature Communications, 2024).
Positions count from the first letter of the chain named. Names and notes keep the numbering of the source.

Molecular target: T1, IL-22 RA1 extracellular domain (ECD) (UniProt Q8N6P7 16-228)
T1 construct: Coated on the ELISA plate; also called IL22 receptor; IL22R1A
T1 sequence (looked up): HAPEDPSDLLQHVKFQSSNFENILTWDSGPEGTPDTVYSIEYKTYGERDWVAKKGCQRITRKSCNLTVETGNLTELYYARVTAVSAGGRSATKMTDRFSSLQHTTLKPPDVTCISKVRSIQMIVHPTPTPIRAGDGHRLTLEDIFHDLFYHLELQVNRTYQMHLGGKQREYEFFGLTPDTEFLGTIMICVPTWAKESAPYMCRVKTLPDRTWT
Test: ELISA; 96-well plate coated with IL-22 RA1 ECD; varying concentrations of IL22-Fc added in duplicate; bound IL22-Fc detected with goat anti-human IgG-HRP and TMB; potency by parallel curve program relative to the reference standard
Settings: both partners purified

B1: enzymatically desialylated IL22-Fc (Fc fusion, UniProt Q9GZX6 34-179, looked up)
chain: APISSHCRLDKSNFQQPYITNRTFMLAKEASLADNNTDVRLIGEKLFHGVSMSERCYLMKQVLNFTLEEVLFPQSDRFQPYMQEVVPFLARLSNRLSTCHIEGDDLHIQRNVQKLKDTVKKLGESGEIKAIGELDLLFMSLRNACI
modifications: N-linked glycans with the sialic acids enzymatically removed
notes: IL22 cytokine of the IL22-Fc fusion UTTR1147A, same chain as m1; Same polypeptide as m1; differs only in the glycans; also called sialidase-treated IL22-Fc; source: IL22-Fc from cell culture fermentation, purified, then enzymatically desialylated
- fold change in binding against control IL22-Fc: ~2 fold

B2: IL22-Fc N21Q point mutant (Fc fusion, UniProt Q9GZX6 34-179, looked up)
chain: B1 chain with N21Q
modifications: N-linked glycans; the glycosylation site at N21 knocked out
notes: IL22 cytokine of the IL22-Fc fusion UTTR1147A with N21Q; Parent is m1; source: 10 day CHO cell culture fermentations, SP Sepharose Fast Flow ion exchange chromatography
- fold change in potency (binding ELISA) relative to wild type: 3.98 fold
